According to patent US10398760B2, “Method of treating pain using agents that promote neuronal differentiation” (priority 2016, dated 2019):
Entries after “also recorded” stand apart in the source; their conditions may differ.

Assays:
[1] = test system: Mash1, DCX and Notch3 expression in spinal cord gray matter; assay: Immunofluorescence quantification of immature neuron markers in spinal cord gray matter; assay type: in vivo, rat; conditions: vs CCI+Veh
[2] = test system: rats subjected to chronic constriction injury of the sciatic nerve (CCI) or Sham surgery; assay: Thermal nociceptive sensitivity (Hargreaves method, radiant heat withdrawal latency) in CCI and Sham rats; assay type: in vivo, rat
[3] = test system: rats subjected to chronic constriction injury of the sciatic nerve (CCI) or Sham surgery; assay: Mechanical nociceptive sensitivity (von Frey filaments) in CCI and Sham rats; assay type: in vivo, rat
[4] = test system: human with chronic pain as a result of injury; assay: Use of Dihexa to treat chronic pain in a human (numeric rating scale, dolorimetric); assay type: in vivo; conditions: oral; for pain reported by the subject: 200 miligrams/day
Experimental: Dihexa (N-hexanoic-Tyr-Ile-(6)aminohexanoic amide), an activator of c-Met receptor, is administered orally, 200 miligrams/day for 4 weeks, to a human for the purpose of treating pain. The subject is having chronic pain for the previous 6 months, as a result of injury. Before the beginning of treatment, and weekly thereafter for 6 months, the subject is tested for pain levels using a combination of subjective (numeric rating scale) and physiological (dolorimetric) evaluation methods.

[5] = test system: human patient diagnosed with fibromyalgia; assay: Use of NT4 to treat pain in a human patient diagnosed with fibromyalgia; assay type: in vivo; conditions: for pain reported by the patient: injected into the spinal canal every other day for 3 weeks
Experimental: NT4 is a TrkB ligand and inducer of neuronal differentiation that may be used to treat pain. NT4 (200 microliters, 1 microgram/ml) is injected every other day for 3 weeks (10 injections total) into the spinal canal of a human patient diagnosed with fibromyalgia. […] To prevent pain reoccurrence, a maintenance dose of 7,8-dihydroxy-4′-dimethylaminoflavone-8-O-glucozide (3-4 grams per day for 4-5 consecutive days) may be administered every month.

[6] = intraperitoneal DHF treatment delayed for 3 weeks after CCI
[7] = intrathecal BDNF treatment delayed for 3 weeks after CCI
[8] = intrathecal injection every other day for first 3 weeks after CCI/Sham surgery, tested weekly, vs vehicle

In the case of `O=c1cc(-c2ccccc2)oc2c(O)c(O)ccc12` [DHF, 7,8-dihydroxyflavone, reference compound], the “expression of immature neuron markers Mash1, DCX and Notch3” value ([1]; intraperitoneal injection every other day for 3 weeks after CCI, spinal cords taken after 4 weeks) is reported as “reduces the expression of Mash1, DCX and Notch3; also recorded: reducing the expression of all three markers”, the “long-term thermal pain sensitivity” value [2, 6] is reported as “extended long-term decrease in mechanical and thermal pain susceptibility; also recorded: long-term decrease in pain sensitivity” and the “duration of the decrease in pain” value ([3]; DHF intraperitoneal treatment applied for only 3 weeks) is reported as 3 months. For the same molecule, the “long-term mechanical pain sensitivity” value [3, 6] was “extended long-term decrease in mechanical and thermal pain susceptibility; also recorded: long-term decrease in pain sensitivity” and the “mechanical pain sensitivity / mechanical pain threshold” value ([3]; intraperitoneal injection every other day for 3 weeks immediately after CCI/Sham surgery, vs vehicle) was “reduces long-term mechanical pain susceptibility; also recorded: long-term increase in mechanical pain threshold (decrease in pain sensitivity)”.

“N-hexanoic-Tyr-Ile-(6)aminohexanoic amide [Dihexa]” was tested, and the “time until increased pain sensitivity may reoccur” value ([4]; 200 miligrams/day for 4 weeks) was 3 months, the “pain reported by the subject” value ([4]; after 2 weeks of treatment) was “decreased pain” and the “pain reported by the subject” value ([4]; after 4 weeks of treatment) was “pain sensitivity is back to normal levels”.

B1: BDNF: brain-derived neurotrophic factor, TrkB ligand and promoter of neuronal differentiation, injected intrathecally (protein)
chain: HSDPARRGELSVCDSISEWVTAADKKTAVDMSGGTVTVLEKVPVSKGQLKQYFYETKCNPMGYTKEGCRGIDKRHWNSQCRTTQSYVRALTMDSKKRIGWRFIRIDTSCVCTLTIKRGR
B1 was tested, and the “expression of immature neuron markers Mash1, DCX and Notch3” value ([1]; intrathecal injection every other day for 3 weeks after CCI, spinal cords taken at week 4) was “reduction in the expression of Mash1, DCX and Notch3; also recorded: reducing the expression of all three markers”, the “initial short-term increase in thermal pain sensitivity (duration)” value [2, 7] was 2 to 3 days and the “long-term thermal pain sensitivity” value [2, 7] was “reduced thermal pain susceptibility; also recorded: long-term decrease in pain sensitivity”. For the same molecule, the “thermal nociceptive (pain) sensitivity” value [2, 8] was “may increase long-term sensitivity to thermal pain; also recorded: increased long-term thermal pain sensitivity”, the “duration of the decrease in pain” value ([3]; BDNF intrathecal treatment applied for only 3 weeks) was 3 months and the “long-term mechanical pain sensitivity” value [3, 7] was “long-term reduction in pain and pain susceptibility; also recorded: long-term decrease in pain sensitivity”. For the same molecule, the “mechanical nociceptive (pain) sensitivity / mechanical pain threshold” value [3, 8] was “reduction in mechanical pain susceptibility (increased pain threshold); also recorded: long-term increase in mechanical pain threshold (decrease in pain sensitivity)”.

B2: NT4: neurotrophin 4, a TrkB ligand and inducer of neuronal differentiation (protein)
chain: GVSETAPASRRGELAVCDAVSGWVTDRRTAVDLRGREVEVLGEVPAAGGSPLRQYFFETRCKADNAEEGGPGAGGGGCRGVDRRHWVSECKAKQSYVRALTADAQGRVGWRWIRIDTACVCTLLSRTGRA
B2 was tested, and the “pain reported by the patient” value ([5]; after 2 weeks) was “decreased pain”, the “pain reported by the patient” value ([5]; after 3-4 weeks) was “no pain” and the “pain reported by the patient” value ([5]; after 4-5 days) was “increased pain”. For the same molecule, the “time after which the increase in pain subsides” value ([5]; injected into the spinal canal every other day, with continued treatment) was 7 to 10 days.
